Molecular target: proton-dissociation-permeated sodium channel (PDPNaC1) (Scolopendra subspinipes mutilans)
Assay: cryo-EM structure; purified PDPNaC1 in LMNG/CHS, pH 8.0, 4.0 mg/mL; 121,831 particles, C3 symmetry, 3.03 Å; closed (non-conductive) state

Q: With “proton-dissociation-permeated sodium channel (PDPNaC1) (natural protein)” as the substance, how does the stoichiometry N read?
A: 3

Reference: PMC12714832
